{"source": "patent US20230105667A1", "about": "“MESENCHYMAL STROMAL CELLS AND EXTRACELLULAR VESICLES FOR TREATING VIRAL INFECTIONS, INFLAMMATION, AND TISSUE FIBROSIS” (EXOSTEM BIOTEC LTD., priority 2020, published 2023)", "molecular_target": "human ACE2 on cells (human lung epithelial cells expressing ACE2 (human) (UniProt Q9BYF1))", "sequence (Q9BYF1 18-805 limits assumed)": "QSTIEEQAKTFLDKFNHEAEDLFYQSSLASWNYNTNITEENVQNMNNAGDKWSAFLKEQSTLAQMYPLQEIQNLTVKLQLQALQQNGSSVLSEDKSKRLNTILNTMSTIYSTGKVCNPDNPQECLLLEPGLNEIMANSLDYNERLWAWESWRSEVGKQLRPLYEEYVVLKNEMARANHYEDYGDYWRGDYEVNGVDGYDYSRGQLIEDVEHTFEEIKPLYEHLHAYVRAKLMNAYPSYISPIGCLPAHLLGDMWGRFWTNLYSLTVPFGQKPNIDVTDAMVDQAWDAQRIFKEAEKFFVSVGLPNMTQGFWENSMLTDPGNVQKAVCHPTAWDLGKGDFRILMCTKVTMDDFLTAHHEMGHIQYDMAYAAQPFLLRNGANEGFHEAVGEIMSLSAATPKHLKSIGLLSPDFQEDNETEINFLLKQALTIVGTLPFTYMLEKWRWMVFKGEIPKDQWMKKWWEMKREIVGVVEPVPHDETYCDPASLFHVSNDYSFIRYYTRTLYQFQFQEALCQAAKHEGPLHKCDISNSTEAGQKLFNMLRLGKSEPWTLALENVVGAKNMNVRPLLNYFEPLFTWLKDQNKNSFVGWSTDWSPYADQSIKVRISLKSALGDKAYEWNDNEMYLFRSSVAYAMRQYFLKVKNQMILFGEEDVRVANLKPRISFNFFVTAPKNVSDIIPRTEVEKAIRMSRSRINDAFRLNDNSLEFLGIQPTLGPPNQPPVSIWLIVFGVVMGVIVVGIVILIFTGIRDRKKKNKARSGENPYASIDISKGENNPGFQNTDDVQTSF", "assay": "cell-based or functional assay"}
{"substance": "SARS-CoV-2 receptor-binding-domain (RBD) displayed on extracellular vesicles from MSCs (ligand)", "values": [{"measurement": "TNFα levels in HBE cells treated with RBD recombinant protein", "result": 50, "unit": "%"}]}
